The record followed here is patent publication US20180222956A1.

Like-named read-outs stand apart in the source and are kept apart here.

Holding throughout (experiment): cell-based or functional assay
The target of experiment [1] is Human TGFβ3 (human) (UniProt P10600).
Experiment [2] concerns the target Human TGFβ1 (human) (UniProt P01137).
For experiment [3], the target named is Human TGFβ3 (human) (UniProt P10600). The source holds these as a separate data set.
The target of experiment [4] is Human TGFβ1 (human) (UniProt P01137). This is another data set of the same source.
Chain of Human TGFβ1 (human) (P01137 279-390 limits assumed): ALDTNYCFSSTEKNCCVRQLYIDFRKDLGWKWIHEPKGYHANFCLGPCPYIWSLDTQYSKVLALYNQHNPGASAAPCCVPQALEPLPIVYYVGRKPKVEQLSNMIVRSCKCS

Chain of hTβRIIshort(23-159)-hG2Fc (Fc fusion) (chain): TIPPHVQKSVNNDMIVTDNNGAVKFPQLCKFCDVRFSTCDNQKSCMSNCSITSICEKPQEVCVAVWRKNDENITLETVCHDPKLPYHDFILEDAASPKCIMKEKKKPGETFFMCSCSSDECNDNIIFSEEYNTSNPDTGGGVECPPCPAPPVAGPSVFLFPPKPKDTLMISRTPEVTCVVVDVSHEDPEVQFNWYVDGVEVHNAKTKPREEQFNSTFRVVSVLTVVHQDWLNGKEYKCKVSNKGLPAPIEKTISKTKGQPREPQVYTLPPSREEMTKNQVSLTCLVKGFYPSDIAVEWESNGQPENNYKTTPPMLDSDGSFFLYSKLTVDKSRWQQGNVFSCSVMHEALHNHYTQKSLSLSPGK
Chain of Human TGFβ3 (human) (P10600 301-412 limits assumed): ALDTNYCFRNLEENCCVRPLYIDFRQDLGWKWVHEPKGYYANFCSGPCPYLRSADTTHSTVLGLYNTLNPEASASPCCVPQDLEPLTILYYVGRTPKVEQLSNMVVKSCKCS
Chain of hTβRIIshort(23-153)-hG2Fc (Fc fusion) (chain): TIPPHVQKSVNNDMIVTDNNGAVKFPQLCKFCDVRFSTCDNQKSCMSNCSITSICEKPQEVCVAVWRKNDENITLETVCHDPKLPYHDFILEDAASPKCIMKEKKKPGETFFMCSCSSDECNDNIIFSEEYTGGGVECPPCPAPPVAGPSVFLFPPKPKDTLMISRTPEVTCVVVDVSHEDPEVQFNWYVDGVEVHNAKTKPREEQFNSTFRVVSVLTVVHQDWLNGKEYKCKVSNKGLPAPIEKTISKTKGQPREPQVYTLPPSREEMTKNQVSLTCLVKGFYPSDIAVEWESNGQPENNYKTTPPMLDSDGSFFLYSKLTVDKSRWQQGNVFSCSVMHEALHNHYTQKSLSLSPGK
Chain of hTβRIIshort(35-159)-hG2Fc (Fc fusion) (chain): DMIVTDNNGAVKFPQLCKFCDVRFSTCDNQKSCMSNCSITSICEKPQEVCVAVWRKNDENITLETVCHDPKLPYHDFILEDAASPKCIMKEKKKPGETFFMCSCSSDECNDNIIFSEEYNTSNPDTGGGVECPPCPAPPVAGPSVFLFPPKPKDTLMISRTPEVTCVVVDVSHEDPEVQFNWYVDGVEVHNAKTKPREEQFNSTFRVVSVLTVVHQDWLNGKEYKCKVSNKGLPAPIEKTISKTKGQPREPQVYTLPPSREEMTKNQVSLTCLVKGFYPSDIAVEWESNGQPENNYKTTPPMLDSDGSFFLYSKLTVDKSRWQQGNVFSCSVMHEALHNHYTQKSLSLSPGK
Chain of hTβRIIshort(29-159)-hG2Fc (Fc fusion) (chain): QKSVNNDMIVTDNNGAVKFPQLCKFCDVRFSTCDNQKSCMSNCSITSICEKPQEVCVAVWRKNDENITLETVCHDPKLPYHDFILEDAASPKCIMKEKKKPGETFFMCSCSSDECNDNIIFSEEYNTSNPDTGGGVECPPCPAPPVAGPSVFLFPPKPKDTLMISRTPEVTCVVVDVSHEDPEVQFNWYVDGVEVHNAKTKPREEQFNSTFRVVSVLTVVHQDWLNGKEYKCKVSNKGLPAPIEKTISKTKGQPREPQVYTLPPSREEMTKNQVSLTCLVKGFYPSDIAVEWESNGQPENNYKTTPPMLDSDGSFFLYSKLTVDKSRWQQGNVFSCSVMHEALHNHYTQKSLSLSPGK

hTβRIIshort(23-153)-hG2Fc (Fc fusion) returned an IC50 (nM), A549 CAGA12 reporter gene assay, hTGFβ3 (270 pg/ml) in experiment [1] of 0.14 nM. The substance further had an IC50 (nM), A549 CAGA12 reporter gene assay, hTGFβ1 (640 pg/ml) in experiment [2] of 2.62 nM.
On to “hTβRIIshort(23-153/N70D)-hG2Fc (Fc fusion)”, for which the IC50 (nM), A549 CAGA12 reporter gene assay, hTGFβ1 (640 pg/ml) in experiment [2] amounted to 17.7 nM.
Take hTβRIIshort(23-159)-hG2Fc (Fc fusion): the IC50 (nM), A549 CAGA12 reporter gene assay, hTGFβ3 (270 pg/ml) in experiment [3] is 0.37 nM; in experiment [1], 0.14 nM. Further, the values for the IC50 (nM), A549 CAGA12 reporter gene assay, hTGFβ1 (640 pg/ml) in experiment [4] and in experiment [2] were 0.52 nM and 1.73 nM, respectively.
“hTβRIIshort(23-159/D110K)-hG2Fc (Fc fusion)”: the IC50 (nM), A549 CAGA12 reporter gene assay, hTGFβ1 (640 pg/ml) in experiment [2] was over 73.6 nM.
In experiment [3], hTβRIIshort(29-159)-hG2Fc (Fc fusion) had an IC50 (nM), A549 CAGA12 reporter gene assay, hTGFβ3 (270 pg/ml) of over 7.5 nM. Moreover, in experiment [4], the IC50 (nM), A549 CAGA12 reporter gene assay, hTGFβ1 (640 pg/ml) stood at 2.05 nM.
hTβRIIshort(35-159)-hG2Fc (Fc fusion) had an IC50 (nM), A549 CAGA12 reporter gene assay, hTGFβ3 (270 pg/ml) in experiment [3] of over 7.5 nM. The IC50 (nM), A549 CAGA12 reporter gene assay, hTGFβ1 (640 pg/ml) in experiment [4] came out at 2.51 nM.
